One data set concerns Gibberella zeae. Format: cell-based. Also on record: key: xx = no growth/strong inhibition; x = small inhibition. The conditions noted are these: start concentration 100 μg/ml.
Data set [1] is described as follows: Substrate specificity, reducing end assay. The conditions noted are these: in % activity of chitin powder; 16 h at optimum conditions, 50 mg/ml substrate. It counts as biochemical. On the procedure:
Different chitinous substrates were tested to assess the substrate affinity of the novel chitinases relative to untreated chitin powder. […] As expected, the conversion of colloidal chitin is more efficient compared to chitin powder as it provides an overall smaller particle size and thereby larger surface area. Chitosan powder (degree of acetylation: 15%) was also degraded efficiently and high chitosanase activity was observed especially for C1, C3, C4 and C5. Merely basal activity was detected when cellulose was utilized as a substrate for all enzymes.
The preparation of colloidal chitin was similar to the method described by Murthy and Bleakley with some minor differences [Murthy et al., Microbiol., 2012. 10(2): p. 1-5.]. Chitin powder (Carl Roth) was dissolved in concentrated hydrochloric acid (HCl) (5 g in 100 mL) and stirred at 4° C. for 24 h, after which the mixture was centrifuged at 4000×g for 15 min at 4° C. The precipitate was washed to neutral pH with distilled water and stored at 4° C.
(§1) Enzyme samples were incubated at different temperature (10-60° C., 10° C. increment) and pH (4-11, increment 1) using different buffer systems (Acetate, Tris-HCl, MES, total molar concentration 100 mM), as well as NaCl content (0, 1. 2.5, 5, 10 and 20% w/v) to determine optimum reaction conditions. All experiments were carried out at 1.0 ml scale using 2 μM of the respective enzymes and a 5% (wv) suspension of chitin powder extracted from shrimp shells (˜400.000 g/mol; Carl, Roth) in 100 mM MAT buffer. For the determination of the substrate specificity, chitin powder (5% w/v), glycol chitin (10% v/v), colloidal chitin (5% w/v), chitosan [DA 15-25%, medium molecular weight, Sigma-Aldrich] (5% w/v) and microcrystalline cellulose powder (Sigma Aldrich) (5% w/v) were investigated, respectively. The effect of several potential co-factors on activity was elucidated at a concentration of 1 mM. Additionally, the effect of detergents [SDS 0.5% (w/v), Tween-20 and Triton X-100 both at 0.5% (v/v)] and chemicals (Imidazole 100 mM, EDTA 1 mM) on enzymatic activity was assessed. Samples were incubated in a thermomixer for 16 h at 900 rpm. After incubation, samples were analyzed using the enzyme assay. Thermostability was assessed after incubation of recombinant chitinases at 60° C. for different durations followed by the quantification of residual enzyme activity under standard assay conditions.

For the next data set, the system named is Fusarium oxysporum. In words: Minimum inhibitory concentration (MIC) test on fungal pathogens. Format: cell-based. Also on record: key: xx = no growth/strong inhibition; x = small inhibition. The conditions noted are these: start concentration 100 μg/ml.
A short description of data set [2]: Enzyme kinetics on chitin powder (Michaelis-Menten non-linear fit). It counts as biochemical. As to conditions: 2 μM enzyme, 0-150 mg/ml chitin powder. On the procedure:
Enzyme kinetics were determined using chitin powder as a substrate and the optimum enzyme to substrate ratio could be determined as well as Vmax and Km values. The concentrations of chitin powder varied
from 0 mg/ml up to 150 mg/ml while amount of enzyme was kept constant (2 μM). The initial velocities (V0) versus substrate concentration ([S]) were plotted as Lineweaver-Burk and Michaelis-Menten curves using GraphPad software (FIG. 7).
Maximum reaction velocities (Vmax) and Michaelis-Menten constants (Km) were determined using a non-linear fit Michaelis-Menten model (Table 4.6). Thereby, optimum enzyme-substrate ratios were determined that would allow a maximization of substrate conversion rates. Furthermore, the Km indicated the reciprocal enzyme-substrate affinity for C1-C5. Higher Km values reflect an overall lower affinity and thus reduced conversion efficiencies. […] In comparison, higher Km values for C2 and C5 reflected an overall lower affinity to insoluble chitin.
as §1

The nature of data set [3]: Temperature, pH and NaCl optima and temperature stability of recombinant chitinases (reducing end assay). Format: biochemical. As to conditions: for Optimum pH / Optimum salinity / Optimum temperature: chitin powder; for Optimum pH: 30° C., pH 4-11; for Optimum salinity: pH 8, 30° C., 0-20% w/v NaCl; for Optimum temperature: pH 8, range 10-60° C. On the procedure: All enzymes were first characterized regarding their temperature and pH-optima as well as the optimum NaCl content as the enzymes were isolated from a sea-water microorganism. As the future intention is to integrate these novel enzymes in a degradation processes of natural chitin, all parameters were determined using chitin powder as a substrate instead of pre-treated analogs such as colloidal chitin, glycol chitin or artificial fluorogenic substrates. […] (FIG. 5A). Next, enzyme temperature stability was investigated (FIG. 51). […] Enzyme C1 retained a 50% residual activity after 240 min incubation at 60° C., while the activity of the other chitinases dropped below 50% after 15 min and remained on that level.
Given the marine origin of the P. orarium strain, the effect of salt was also evaluated, testing the addition of NaCl to the standard buffer. […] Increasing NaCl amounts up to 20% (w/v) reduced enzyme activity substantially to 10% for C2, 4 and 5, with C1 and C3 showing highest tolerance (65% activity).
For the determination of enzymatic activity of recombinant chitinases, a reducing end assay was carried out [Svein et al., Carbohydr Polym, 2004. 56(1): p. 35-39.]. Fractions containing chitinases were incubated with 5% (w/v) chitin powder extracted from shrimp shells (˜400.000 g/mol; Carl Roth) in MAT buffer for 2 h in an overhead shaker at ambient temperature (standard conditions). Samples were centrifuged at 13000×g for 2 min and 40 μl of the supernatant was mixed with 40 μl 0.5 M NaOH and 40 μL of a reagent containing 1.5 mg/ml 3-Methyl-2-benzothiazolinonhydrazon and 0.75 mg/ml Dithiothreitol. Samples were incubated at 80° C. for 15 min and then thoroughly mixed with 80 μl of 0.5% (w/v) FeNH4(SO4)2)×12H2O, 0.5% (w/v) sulfamic acid and 0.25 M HCl. After cooling down to room temperature, 100 μl of the samples were measured at 620 nm. A calibration curve of N-acetyl-glucosamine was constructed freshly for each measuring cycle. One unit [U] was defined as the amount of enzyme required to release 1 μmol of reducing sugars per hour.
as §1

In a further data set the test system is Septoria tritici. In words: Minimum inhibitory concentration (MIC) test on fungal pathogens. Format: cell-based. Also on record: key: xx = no growth/strong inhibition; x = small inhibition. As to conditions: start concentration 100 μg/ml.

B1: Chitinase 3: chitinolytic enzyme from P. orarium, SEQ ID NO: 3, recombinant with PelB signal peptide and 6×His tag (protein, listed as Photobacterium orarium)
chain: MALAAPGTPQLAWMETDYAIVEVDQAATAYKDLVTVKNAADVPVAWQRYSGETADHWKVKLNGNVAFEESINPASSGAGSTTLSITQGGQYALTVELCSGSGAEEACSSSPATNIVVADTDGSHLDPLPMNVDPNNGTYSTPADTVVGAYFVEWGVFGRKFTVDKIPAQNLTHILYGFIPVCGPNESLGEIESGNSLAALNRACAGTPDFEVAIHDPWAAVQMPQPQSGHTYSTPYKGNYGQLMALKQRYPDLKVIPSIGGWTLSDPFFSFTDKSKRDVFVASVKKFLQTWKFFDGVDIDWEFPGGKGANTTLGDPVNDGPAYVALMRELRTMLDGLEAETGRQFELTSAIGVGYDKIDVVNYAEASQYMDYIFNMSYDFYGGWSNVTGHQTALNCGSHLTADQCNGTGVDENGEPRQGPAYTTAHGVERLLAQGVPANKLVVGAAMYGRGWTGVTQASMTDPSNPMTGVGNGAVAGSWEAGVIDYKDVVTRYENKAGVVLGYDEQAEAPWAYDPSNGDLVTYDSPRSIMAKGQYVRDLGLAGLFAWEIDADNGDILNAMQESLAGAPAGNRAPVARAGSDQQVNTAATVTLNGSSSTDSDGQIAGYQWVQTSGPALTLNGANTASATISVPDVTVDTQYVFTLTVTDNEGATATDSITVTAKAPGAQNTAPVASLTGPGTANADDVITLDASQSTDADGDTLTYDWTVPAGVNAVINGSSLSFTADSYTTDTALSFSVSVSDGTASDAASLTVTIAKDESGTGGEGDFPAYVEGTAYQAGDQVSNGGVNFECKPYPYSGWCSGAAWAYEPGVGVYWQDAWTQLIE
modifications: PelB signal peptide; 6xHis tag; Chitinase 3
Take B1: the “growth inhibition of Gibberella zeae in the MIC test” value (from here on “growth inhibition of Gibberella zeae”) with Gibberella zeae is reported as “x”. The “Relative activity, Colloidal chitin” value in data set [1] is given as 133.4 ± 6.5%. The “growth inhibition of Fusarium oxysporum in the MIC test” value in the data set with Fusarium oxysporum is “xx”. Further, in data set [2], the “Km (enzyme-substrate affinity)” value amounted to 15.2 mg/mL and the “Vmax (maximum reaction velocity)” value came to 206.2 U/ml. In data set [3], the “Optimum pH” value is on record as 8, the Optimum salinity was 5 % NaCl and the Optimum temperature turned out to be 30 °C.

B2: Chitinase 4: chitinolytic enzyme from P. orarium, SEQ ID NO: 4, recombinant with PelB signal peptide and 6×His tag (protein, listed as Photobacterium orarium)
chain: MAQAAANCRPDGLYQTPGVTVPYCTVYDQDGREKMGVDHPRRVIGYFTSWRSGNDPQSSYLVNDIPWDSLTHINYAFVSIGSDGKVNIGNVNNPDNPAVGKEWPGVEIDPALGFKGHFGALATAKAQHGVKTLISIGGWAETGGHFDDNGNRVADGGFYTMTTNADGSINHQGIQTFADSAVAMMRQYKFDGLDIDYEYPTSMQGAGNPDDFAYSDAMRPHLMKSYHELMKVLREKLDQASAQDGHHYMLTIAAPSSGYLLRGMETMSVTKYLDYVNIMSYDLHGAWNDYVGHNASLFDSGLDAELEAGNVYGTAQYKKTGYLNTDWAYHYFRGSMPAGRINIGVPYYTRGWQGVTGGTNGLWGKAALPNQSDCPTGTGAGTSNCGYGAIGIDNMWHDKDANGNEMGAGSNPMWHAMNLANGVYGSYTAAYGLDPVNDPQDALTGTYTRHYDSVSVAPWLWNADKKVFLSTEDKESINTKADYVIEQGIGGIMFWELAGDYSCYNLDANGNRTTVDPTENACKTGNGEYHMGDTMTKAIHNKFATATPYGNTLAEGAIPTEAVNIDVSVTGFKVGDQNYPLNPTMTLTNKTGQTLPGGTEFQFDIPTSTPDNMSDQSGANLQVISSGHTRGDNIGGLDGNFHRVAFTLPSWKQLGNNESFELTLNYFLPISGPANYSVRVNNADYALAFEQPDLPIADLSNGGGDNGGGDGNNGDCVTTGVNTYPNWPQTDWAGNPSHAGTGDKIIYNGAVYQAKWWTNSVPGSDGSWDTVCTVQIE
modifications: PelB signal peptide; 6xHis tag; Chitinase 4
For the molecule B2, the “growth inhibition of Gibberella zeae” value in the data set on Gibberella zeae is reported as “x”. For the same molecule, the “Relative activity, Colloidal chitin” value in data set [1] amounted to 117.7 ± 6.3%. Moreover, the “growth inhibition of Fusarium oxysporum in the MIC test” value in the data set on Fusarium oxysporum is given as “xx”. In data set [2], the “Km (enzyme-substrate affinity)” value stood at 22.2 mg/mL and the “Vmax (maximum reaction velocity)” value amounted to 218.6 U/ml. In data set [3], the “Optimum pH” value came to 8, the Optimum salinity came out at 1 % NaCl and the Optimum temperature was 30 °C.

B3: Chitinase 1: chitinolytic enzyme from P. orarium, SEQ ID NO: 1, recombinant with PelB signal peptide and 6×His tag; run 19 = 2 μM alone (protein, listed as Photobacterium orarium)
chain: MAAPGTPQIAWMETDYAIVEVDQAASAYKSLITVKPAAEVPVAWQRYSGETADLWKVKLNGNVVFEQSIAPASSGAGSTTLSVAQGGQYAMTVELCSGTGAAQACTSSAATNIVVADTDGSHLDPLPMNVDANNGNYTTPANTVVGAYFVEWGVYGRKFSVDNIPAQNLTHILYGFIPICGPNESLGEIENGNSLAALNRACQGTPDYEVVIHDPWAAVQMPQPQSGHTHSTPYKGTYGQMMALKQRYPDLKIVPSVGGWTLSDPFYSFTDKAKRDIFVASVKKFLKTWKFFDGVDIDWEFPGGKGANANLGDPVNDGPAYVALMRELRVMLDELEAETGRQYELTSAIGVGYDKIDVVNYADAVQYMDYIFAMTYDFFGGWNNVPGHQTALFCGSHMSADVCNGTGVDENGVPRQGPAYTAAHGIDRLLAQGVPANKLVLGTAMYARGWTGVTEASMTDPTNPMTGTGNGMVPGSWEPGVIDYKDVVTDYINNAAVTKGYDAQAEAPWAYNPSNGNLITYDDRRSVLAKGQYVRNLGLAGLFAWEIDADNGDILNAMQDSLAGGGGNYAPVAKAGADQVVNGAASVTLDGSASSDRDGQIVSYQWTQTSGPALTLTGSDTATATVAVPEVTADTQYAFTLTVTDNAGDTATDSVTVTAKAPGSNTAPVVAVSGPATASAGDTVVLDASQSSDADGDTLTFTWTVPAGVNATVNGATVSFVADSYTVDTPLNFTVAVSDGTDSVTESVTVTVLKDGGSTGCTNAWATGGVYNSGDIVTHSGKSWKAKWWTTGEEPGTTGEWGVWEDLGAANCQIE
modifications: PelB signal peptide; 6xHis tag; Chitinase 1
notes: run 19 = 2 μM alone
B3: in the data set with Gibberella zeae, the “growth inhibition of Gibberella zeae” value is recorded as “x”. Further, the “Relative activity, Colloidal chitin” value in data set [1] was 159.9 ± 4.8%. In the data set on Fusarium oxysporum, the “growth inhibition of Fusarium oxysporum in the MIC test” value is “xx”. In the data set with Septoria tritici, the “growth inhibition of Septoria tritici in the MIC test” value is reported as “xx”. Also, in data set [2], the “Km (enzyme-substrate affinity)” value worked out at 9.1 mg/mL and the “Vmax (maximum reaction velocity)” value came to 197.7 U/ml. Moreover, in data set [3] (after 240 min incubation at 60° C.), the residual activity came out at 50%. Also, in data set [3], the “Optimum pH” value is given as 8, the Optimum salinity was 1 % NaCl and the Optimum temperature came to 30 °C.

As usually defined, the residual activity is the share of the control activity or signal that is left under treatment.

Values taken from patent US20240287489A1, “CHITINOLYTIC ENZYME-BASED PLANT PROTECTION AGENTS” (GLOBACHEM NV, priority 2021, published 2024).
